Data reported in publication PMC9482650, “Quantitative fragmentomics allow affinity mapping of interactomes” (Nature Communications, 2022).

T1: SIPA1L2, Q9P2F8
T1 sequence (Q9P2F8 945-1036, limits assumed, looked up): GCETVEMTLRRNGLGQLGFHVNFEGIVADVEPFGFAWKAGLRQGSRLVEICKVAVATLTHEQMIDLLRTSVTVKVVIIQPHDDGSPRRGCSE

T2: RADIL, Q96JH8
T2 sequence (Q96JH8 971-1071, limits assumed, looked up): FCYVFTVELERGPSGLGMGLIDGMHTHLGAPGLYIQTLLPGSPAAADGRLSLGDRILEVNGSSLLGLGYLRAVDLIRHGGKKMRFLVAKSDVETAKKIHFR

T3: LRRC7, Q96NW7
T3 sequence (Q96NW7 1440-1537, limits assumed, looked up): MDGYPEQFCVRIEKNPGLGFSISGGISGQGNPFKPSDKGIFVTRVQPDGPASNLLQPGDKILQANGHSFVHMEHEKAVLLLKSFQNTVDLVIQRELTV

T4: CARD11, Q9BXL7
T4 sequence (Q9BXL7 662-765, limits assumed, looked up): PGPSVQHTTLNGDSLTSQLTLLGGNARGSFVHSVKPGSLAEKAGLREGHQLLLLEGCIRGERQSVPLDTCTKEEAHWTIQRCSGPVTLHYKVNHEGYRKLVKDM

T5: GRIP1_3, Q9Y3R0
T5 sequence (Q9Y3R0 247-346, limits assumed, looked up): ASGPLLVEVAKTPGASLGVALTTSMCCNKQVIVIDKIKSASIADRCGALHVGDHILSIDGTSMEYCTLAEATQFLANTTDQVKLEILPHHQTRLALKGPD

T6: DFNB31_1, Q9P202
T6 sequence (Q9P202 135-233, limits assumed, looked up): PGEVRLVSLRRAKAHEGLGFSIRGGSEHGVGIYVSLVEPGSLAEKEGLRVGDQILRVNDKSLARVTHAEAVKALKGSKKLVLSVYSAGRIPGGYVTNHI

T7: DLG3_2, Q92796
T7 sequence (Q92796 221-321, limits assumed, looked up): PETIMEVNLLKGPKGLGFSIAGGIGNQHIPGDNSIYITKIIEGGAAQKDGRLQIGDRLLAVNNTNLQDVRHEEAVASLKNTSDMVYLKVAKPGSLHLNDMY

T8: SYNJ2BP, P57105
T8 sequence (P57105 8-110, limits assumed, looked up): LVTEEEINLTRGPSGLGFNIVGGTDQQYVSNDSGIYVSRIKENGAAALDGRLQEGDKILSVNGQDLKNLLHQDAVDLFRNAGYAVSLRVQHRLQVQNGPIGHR

T9: ARHGEF11, O15085
T9 sequence (O15085 42-136, limits assumed, looked up): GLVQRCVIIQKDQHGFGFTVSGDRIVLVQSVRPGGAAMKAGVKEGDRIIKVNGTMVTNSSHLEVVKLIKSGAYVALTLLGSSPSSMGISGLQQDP

T10: MPP7, Q5T2T1
T10 sequence (Q5T2T1 134-230, limits assumed, looked up): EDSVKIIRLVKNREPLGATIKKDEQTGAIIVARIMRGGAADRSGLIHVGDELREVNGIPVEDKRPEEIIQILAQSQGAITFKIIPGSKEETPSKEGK

T11: DLG3_3, Q92796
T11 sequence (Q92796 374-475, limits assumed, looked up): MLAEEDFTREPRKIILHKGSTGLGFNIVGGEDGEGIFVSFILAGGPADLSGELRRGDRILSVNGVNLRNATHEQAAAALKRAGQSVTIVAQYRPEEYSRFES

T12: MPDZ_5, O75970
T12 sequence (O75970 695-796, limits assumed, looked up): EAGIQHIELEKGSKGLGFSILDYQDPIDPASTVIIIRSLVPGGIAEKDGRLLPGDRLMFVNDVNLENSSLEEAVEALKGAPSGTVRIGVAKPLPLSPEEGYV

T13: RHPN1, Q8TCX5
T13 sequence (Q8TCX5 508-602, limits assumed, looked up): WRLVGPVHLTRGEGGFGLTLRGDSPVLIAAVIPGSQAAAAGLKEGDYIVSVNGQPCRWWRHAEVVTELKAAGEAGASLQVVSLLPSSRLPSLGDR


Key:
Test in all cases: holdup assay
Design in all cases: key: below the threshold = too weak to quantify, mostly under pKd 3.1 to 4
Conditions in all cases: plain residues with an end cap or a label only (N-terminal biotin on a linker: ado-ado)
Inadl_6, Q8NI35 = target: Inadl_6, Q8NI35
Inadl_6, Q8NI35, sequence (Q8NI35 1058-1167): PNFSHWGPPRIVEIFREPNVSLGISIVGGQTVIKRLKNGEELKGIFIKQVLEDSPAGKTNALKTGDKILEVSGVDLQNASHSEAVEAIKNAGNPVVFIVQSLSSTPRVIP

SIPA1L2, Q9P2F8 = target: T1, SIPA1L2, Q9P2F8
RADIL, Q96JH8 = target: T2, RADIL, Q96JH8
GRIP2_6, Q9C0E4 = target: GRIP2_6, Q9C0E4
GRIP2_6, Q9C0E4, sequence (Q9C0E4 648-740): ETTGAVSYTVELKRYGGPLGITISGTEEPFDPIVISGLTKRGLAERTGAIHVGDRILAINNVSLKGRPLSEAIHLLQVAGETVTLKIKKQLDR

LRRC7, Q96NW7 = target: T3, LRRC7, Q96NW7
CARD11, Q9BXL7 = target: T4, CARD11, Q9BXL7
GRIP1_3, Q9Y3R0 = target: T5, GRIP1_3, Q9Y3R0
DFNB31_1, Q9P202 = target: T6, DFNB31_1, Q9P202
TJP1_3, Q07157 = target: TJP1_3, Q07157
TJP1_3, Q07157, sequence (Q07157 416-512): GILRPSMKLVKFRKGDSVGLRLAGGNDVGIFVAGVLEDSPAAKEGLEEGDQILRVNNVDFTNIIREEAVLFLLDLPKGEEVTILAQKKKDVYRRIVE

DLG3_2, Q92796 = target: T7, DLG3_2, Q92796
GRIP2_5, Q9C0E4 = target: GRIP2_5, Q9C0E4
GRIP2_5, Q9C0E4, sequence (Q9C0E4 544-642): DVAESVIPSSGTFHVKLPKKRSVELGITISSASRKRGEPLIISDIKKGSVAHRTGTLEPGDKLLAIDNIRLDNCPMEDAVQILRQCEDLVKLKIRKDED

SYNJ2BP, P57105 = target: T8, SYNJ2BP, P57105
FRMPD2_3, Q68DX3 = target: FRMPD2_3, Q68DX3
FRMPD2_3, Q68DX3, sequence (Q68DX3 1073-1166): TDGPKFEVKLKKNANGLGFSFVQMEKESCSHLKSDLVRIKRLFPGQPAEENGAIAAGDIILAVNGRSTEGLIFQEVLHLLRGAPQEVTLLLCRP

SNX27, Q96L92 = target: SNX27, Q96L92
ARHGEF11, O15085 = target: T9, ARHGEF11, O15085
NHERF4_2, Q86UT5 = target: NHERF4_2, Q86UT5
NHERF4_2, Q86UT5, sequence (Q86UT5 220-308): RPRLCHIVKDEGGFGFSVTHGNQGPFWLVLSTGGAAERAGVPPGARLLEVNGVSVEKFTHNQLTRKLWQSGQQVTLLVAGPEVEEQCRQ

Inadl_1, Q8NI35 = target: Inadl_1, Q8NI35
Inadl_1, Q8NI35, sequence (Q8NI35 113-229): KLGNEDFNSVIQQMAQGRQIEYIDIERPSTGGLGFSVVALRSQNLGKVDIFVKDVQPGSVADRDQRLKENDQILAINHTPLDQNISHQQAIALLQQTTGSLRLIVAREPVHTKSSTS

MPP7, Q5T2T1 = target: T10, MPP7, Q5T2T1
MAGI2_2, Q86UL8 = target: MAGI2_2, Q86UL8
MAGI2_2, Q86UL8, sequence (Q86UL8 410-522): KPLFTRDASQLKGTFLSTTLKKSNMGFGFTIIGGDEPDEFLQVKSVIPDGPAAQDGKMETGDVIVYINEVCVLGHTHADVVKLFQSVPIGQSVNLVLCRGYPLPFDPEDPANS

HTRA1, Q92743 = target: HTRA1, Q92743
HTRA1, Q92743, sequence (Q92743 360-477): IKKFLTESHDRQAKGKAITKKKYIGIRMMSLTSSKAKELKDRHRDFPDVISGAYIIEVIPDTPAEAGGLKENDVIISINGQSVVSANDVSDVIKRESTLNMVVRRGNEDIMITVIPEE

DLG3_3, Q92796 = target: T11, DLG3_3, Q92796
MPDZ_5, O75970 = target: T12, MPDZ_5, O75970
RHPN1, Q8TCX5 = target: T13, RHPN1, Q8TCX5
ARHGEF12, Q9NZN5-2 = target: ARHGEF12, Q9NZN5-2
ARHGEF12, Q9NZN5-2, sequence (Q9NZN5 other isoform, or with tags, fused parts or gaps): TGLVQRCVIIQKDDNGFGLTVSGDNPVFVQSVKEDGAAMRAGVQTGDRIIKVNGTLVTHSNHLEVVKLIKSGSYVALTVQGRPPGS

Row | pKd (Inadl_6, Q8NI35) | pKd (SIPA1L2, Q9P2F8) | pKd (RADIL, Q96JH8) | pKd (GRIP2_6, Q9C0E4) | pKd (LRRC7, Q96NW7) | pKd (CARD11, Q9BXL7) | pKd (GRIP1_3, Q9Y3R0) | pKd (DFNB31_1, Q9P202) | pKd (TJP1_3, Q07157) | pKd (DLG3_2, Q92796) | pKd (GRIP2_5, Q9C0E4) | pKd (SYNJ2BP, P57105) | pKd (FRMPD2_3, Q68DX3) | pKd (SNX27, Q96L92) | pKd (ARHGEF11, O15085) | pKd (NHERF4_2, Q86UT5) | pKd (Inadl_1, Q8NI35) | pKd (MPP7, Q5T2T1) | pKd (MAGI2_2, Q86UL8) | pKd (HTRA1, Q92743) | Binder | also measured
1 | below the threshold | below the threshold | below the threshold | below the threshold | below the threshold | below the threshold | below the threshold | 3.9 | below the threshold | 4.14 | below the threshold | 4.91 | below the threshold | below the threshold | below the threshold | below the threshold | below the threshold | below the threshold | 3.8 | 3.85 | QRPYRRGSEI [KCNJ18, B7U540] | pKd (DLG3_3, Q92796): below the threshold; pKd (MPDZ_5, O75970): below the threshold; pKd (RHPN1, Q8TCX5): 3.75; pKd (ARHGEF12, Q9NZN5-2): 3.74
2 | below the threshold | 3.53 | 4.5 | below the threshold | below the threshold | below the threshold | below the threshold | below the threshold | below the threshold | below the threshold | below the threshold | 3.85 | below the threshold | 3.53 | 3.8 | below the threshold | below the threshold | below the threshold | 3.6 | 4.17 | ARSAAASNYV [CLDN4, O14493] | pKd (DLG3_3, Q92796): below the threshold; pKd (MPDZ_5, O75970): below the threshold; pKd (RHPN1, Q8TCX5): below the threshold; pKd (ARHGEF12, Q9NZN5-2): 3.73
3 | below the threshold | below the threshold | below the threshold | below the threshold | below the threshold | below the threshold | below the threshold | 4.79 | below the threshold | 4 | below the threshold | below the threshold | below the threshold | 4.21 | 4.16 | below the threshold | below the threshold | below the threshold | 3.86 | below the threshold | PTPDLPQTRV [KLHDC7A, Q5VTJ3] | pKd (DLG3_3, Q92796): below the threshold; pKd (MPDZ_5, O75970): below the threshold; pKd (RHPN1, Q8TCX5): 4.32; pKd (ARHGEF12, Q9NZN5-2): 4.13
